# B1: unnamed (protein)
# chain: MRALLLSGCLALVLLTQQAAAQTLLVVGDSISAALGLDTSQGWVALLQKRLADEGYDYRVVNASISGDTSAGGLARLPALLAEEKPALVVIELGGNDGLRGMAPAQLQQNLASMAQKARAEGAKVLLLGIQLPPNYGPRYIEAFSRVYGAVAAQEKTALVPFFLEGVGGVQGMMQADGIHPALAAQPRLLENVWPTLKPLL
# B2: unnamed (protein)
# chain: MSKISEAVKRARAAFSSGRTRPLQFRIQQLEALQRLIQEQEQELVGALAADLHKNEWNAYYEEVVYVLEEIEYMIQKLPEWAADEPVEKTPQTQQDELYIHSEPLGVVLVIGTWNYPFNLTIQPMVGAIAAGNSVVLKPSELSENMASLLATIIPQYLDKDLYPVINGGVPETTELLKERFDHILYTGSTGVGKIIMTAAAKHLTPVTLELGGKSPCYVDKNCDLDVACRRIAWGKFMNSGQTCVAPDYILCDPSIQNQIVEKLKKSLKEFYGEDAKKSRDYGRIISARHFQRVMGLIEGQKVAYGGTGDAATRYIAPTILTDVDPQSPVMQEEIFGPVLPIVCVRSLEEAIQFINQREKPLALYMFSSNDKVIKKMIAETSSGGVAANDVIVHITLHSLPFGGVGNSGMGSYHGKKSFETFSHRRSCLVRPLMNDEGLKVRYPPSPAKMTQH
# B3: unnamed (protein)
# chain: MRKAPLLRFTLASLALACSQALAGPSPYSTLIVFGDSLADAGQFPDLVGGTPGARFTNRDADGNFAPVSPMILGGRLGVAPGDLNPSTSVGIQPDGNNWAVGGYTTQQILDSITTTSETVIPPGNPNAGLVLRERPGYLANGLRADPNALYYLTGGGNDFLQGLVNSPADAVAAGARLAASAQALQQGGARYIMVWLLPDLGQTPNFSGTPQQNPLSLLSAAFNQSLISQLGQIDAQIIPLNIPLLLSEALASPSQFGLASDQNLVGTCYSGDSCVENPVYGINGTTPDPTKLLFNDSVHPTIAGQQLIADYAYSILAAPWELTLLPEMAHASLRAHQDELRNQWQTPWQAVGQWQAFVASGAQDLDFDGQHSAASGDGRGYNLTVGGSYRLNDAWRLGLAGGANRQKLEAGEQDSDYKLNSYMASAFAQYRQDRWWADAALTAGHLDYSDLKRTFALGVNDRSEKGDTDGEAWAMSGRLGYNLAADTSNWQLAPFISADYARVKVDGYDEKSGRSTALGFDDQERTSRRLGVGLLGSVQVLPSTRLFAEVAQEHEFEDDEQDVTMHLTSLPANDFTLTGYTPHSDLTRASLGVSHELVAGVHLRGNYNWRKSDELTQQGISVGVSVDF
# B4: unnamed (protein)
# chain: MTVTDIILIHGALNRGACYDAVVPLLEARGYRVHAPDLTGHTPGDGGHLSVVDMEHYTRPVADILARAEGQSILLGHSLGGASISWLAQHHPDKVAGLIYLTAVLTAPGITPETFVLPGEPNRGTPHALDLIQPVDEGRGLQADFSRLERLREVFMGDYPGEGMPPAEQFIQTQSTVPFGTPNPMEGRALEIPRLYIEALDDVVIPIAVQRQMQKEFPGPVAVVSLPASHAPYYSMPERLAEAIADFADAPAEYRQTATKAGPDRPAGADGGRADRADLP
# B5: unnamed (protein)
# chain: MDGVLWRVRTAALMAALLALAAWALVWASPSVEAQSNPYQRGPNPTRSALTADGPFSVATYTVSRLSVSGFGGGVIYYPTGTSLTFGGIAMSPGYTADASSLAWLGRRLASHGFVVLVINTNSRFDYPDSRASQLSAALNYLRTSSPSAVRARLDANRLAVAGHSMGGGGTLRIAEQNPSLKAAVPLTPWHTDKTFNTSVPVLIVGAEADTVAPVSQHAIPFYQNLPSTTPKVYVELDNASHFAPNSNNAAISVYTISWMKLWVDNDTRYRQFLANVNDPALSDFRTNNRHAQ
# B6: unnamed (protein)
# chain: MSEEVSKNLSETLFVKHKQAKETSALTQYMPTSQSLLDEIKEKNGFSWYRNLRRLQWVWQGVDPIEQEQVLARIASSKHSRTDEQWLDTVMGYHSGNWAYEWTRLGMEHQKRAGEMTNEAASEALFSASLCYSIAGYPHLKSDNLAIQAQVLANSAYLEAAKKSKYIIKQLEIPFEKGKITAHLHLTNTDKPHPVVIVSAGLDSLQTDMWRLFRDHLAKHDIAMLTVDMPSVGYSSKYPLTEDYSRLHQAVLNELFSIPYVDHHRVGLIGFRFGGNAMVRLSFLEQEKIKACVILGAPIHDIFASPQKLQQMPKMYLDVLASRLGKSVVDIYSLSGQMAAWSLKVQGFLSSRKTKVPILAMSLEGDPVSPYSDNQMVAFFSTYGKAKKISSKTITQGYEQSLDLAIKWLEDELLR
# B7: unnamed (protein)
# chain: MWLLPLVLTSLASSATWAGQPASPPVVDTAQGRVLGKYVSLEGLAQPVAVFLGVPFAKPPLGSLRFAPPQPAEPWSFVKNTTSYPPMCCQDPVVEQMTSDLFTNGKERLTLEFSEDCLYLNIYTPADLTKRGRLPVMVWIHGGGLVLGGAPMYDGVVLAAHENVVVVAIQYRLGIWGFFSTGDEHSRGNWGHLDQVAALHWVQENIANFGGDPGSVTIFGESAGGESVSVLVLSPLAKNLFHRAISESGVALTVALVRKDMKAAAKQIAVLAGCKTTTSAVFVHCLRQKSEDELLDLTLKMKFLTLDFHGDQRESHPFLPTVVDGVLLPKMPEEILAEKDFNTVPYIVGINKQEFGWLLPTMMGFPLSEGKLDQKTATSLLWKSYPIANIPEELTPVATDKYLGGTDDPVKKKDLFLDLMGDVVFGVPSVTVARQHRDAGAPTYMYEFQYRPSFSSDKKPKTVIGDHGDEIFSVFGFPLLKGDAPEEEVSLSKTVMKFWANFARSGNPNGEGLPHWPMYDQEEGYLQIGVNTQAAKRLKGEEVAFWNDLLSKEAAKKPPKIKHAEL
# B8: unnamed (protein)
# chain: MRLHRLRARLSAVACGLLLLLVRGQGQDSASPIRTTHTGQVLGSLVHVKGANAGVQTFLGIPFAKPPLGPLRFAPPEPPESWSGVRDGTTHPAMCLQDLTAVESEFLSQFNMTFPSDSMSEDCLYLSIYTPAHSHEGSNLPVMVWIHGGALVFGMASLYDGSMLAALENVVVVIIQYRLGVLGFFSTGDKHATGNWGYLDQVAALRWVQQNIAHFGGNPDRVTIFGESAGGTSVSSLVVSPISQGLFHGAIMESGVALLPGLIASSADVISTVVANLSACDQVDSEALVGCLRGKSKEEILAINKPFKMIPGVVDGVFLPRHPQELLASADFQPVPSIVGVNNNEFGWLIPKVMRIYDTQKEMDREASQAALQKMLTLLMLPPTFGDLLREEYIGDNGDPQTLQAQFQEMMADSMFVIPALQVAHFQCSRAPVYFYEFQHQPSWLKNIRPPHMKADHGDELPFVFRSFFGGNYIKFTEEEEQLSRKMMKYWANFARNGNPNGEGLPHWPLFDQEEQYLQLNLQPAVGRALKAHRLQFWKKALPQKIQELEEPEERHTEL
# B9: unnamed (protein)
# chain: MWLRAFILATLSASAAWGHPSSPPVVDTVHGKVLGKFVSLEGFAQPVAIFLGIPFAKPPLGPLRFTPPQPAEPWSFVKNATSYPPMCTQDPKAGQLLSELFTNRKENIPLKLSEDCLYLNIYTPADLTKKNRLPVMVWIHGGGLMVGAASTYDGLALAAHENVVVVTIQYRLGIWGFFSTGDEHSRGNWGHLDQVAALRWVQDNIASFGGNPGSVTIFGESAGGESVSVLVLSPLAKNLFHRAISESGVALTSVLVKKGDVKPLAEQIAITAGCKTTTSAVMVHCLRQKTEEELLETTLKMKFLSLDLQGDPRESQPLLGTVIDGMLLLKTPEELQAERNFHTVPYMVGINKQEFGWLIPMQLMSYPLSEGQLDQKTAMSLLWKSYPLVCIAKELIPEATEKYLGGTDDTVKKKDLFLDLIADVMFGVPSVIVARNHRDAGAPTYMYEFQYRPSFSSDMKPKTVIGDHGDELFSVFGAPFLKEGASEEEIRLSKMVMKFWANFARNGNPNGEGLPHWPEYNQKEGYLQIGANTQAAQKLKDKEVAFWTNLFAKKAVEKPPQTEHIEL
# B10: unnamed (protein)
# chain: MIRMALKPLVAACLLASLSTAPQAAPSPYSTLVVFGDSLSDAGQFPDPAGPAGSTSRFTNRVGPTYQNGSGEIFGPTAPMLLGNQLGIAPGDLAASTSPVNAQQGIADGNNWAVGGYRTDQIYDSITAANGSLIERDNTLLRSRDGYLVDRARQGLGADPNALYYITGGGNDFLQGRILNDVQAQQAAGRLVDSVQALQQAGARYIVVWLLPDLGLTPATFGGPLQPFASQLSGTFNAELTAQLSQAGANVIPLNIPLLLKEGMANPASFGLAADQNLIGTCFSGNGCTMNPTYGINGSTPDPSKLLFNDSVHPTITGQRLIADYTYSLLSAPWELTLLPEMAHGTLRAYQDELRSQWQADWENWQNVGQWRGFVGGGGQRLDFDSQDSAASGDGNGYNLTLGGSYRIDEAWRAGVAAGFYRQKLEAGAKDSDYRMNSYMASAFVQYQENRWWADAALTGGYLDYDDLKRKFALGGGERSEKGDTNGHLWAFSARLGYDIAQQADSPWHLSPFVSADYARVEVDGYSEKGASATALDYDDQKRSSKRLGAGLQGKYAFGSDTQLFAEYAHEREYEDDTQDLTMSLNSLPGNRFTLEGYTPQDHLNRVSLGFSQKLAPELSLRGGYNWRKGEDDTQQSVSLALSLDF
# Substrate: p-NP-C4
# Conditions: pH 7.2; part of the chain shown
Protein,Km [µM],kcat [s⁻¹],kcat/Km [s⁻¹ M⁻¹]
B1,1000,12,12000

# Substrate: p-NP-C2
# Conditions: pH 7.4; 25 °C
Protein,Km [µM],kcat [s⁻¹],kcat/Km [s⁻¹ M⁻¹]
B2,200,1.43,7170

# Substrate: p-NP-C4
# Conditions: pH 7.2
Protein,Km [µM],kcat [s⁻¹],kcat/Km [s⁻¹ M⁻¹]
B3,300,–,–
B10,700,247,353000

# Substrate: p-NP-C2
# Conditions: pH 7.5; 37 °C
Protein,Km [µM],kcat [s⁻¹],kcat/Km [s⁻¹ M⁻¹]
B4,124,183,1.48e+06

# Substrate: p-NP-C4
# Conditions: pH 8; 30 °C
Protein,Km [µM],kcat [s⁻¹],kcat/Km [s⁻¹ M⁻¹]
B5,250,342,1.37e+06

# Same assay, conditions: pH 8; 50 °C
Protein,Km [µM],kcat [s⁻¹],kcat/Km [s⁻¹ M⁻¹]
B5,180,196,1.09e+06

# Same assay, conditions: pH 8; 70 °C
Protein,Km [µM],kcat [s⁻¹],kcat/Km [s⁻¹ M⁻¹]
B5,190,49,258000

# Substrate: p-NP-C2
# Conditions: pH 7.5; 25 °C
Protein,Km [µM],kcat [s⁻¹],kcat/Km [s⁻¹ M⁻¹]
B6,18600,0.67,36

# Same assay, conditions: pH 7.4; 37 °C
Protein,Km [µM],kcat [s⁻¹],kcat/Km [s⁻¹ M⁻¹]
B7,520,20.2,38800

# Substrate: p-NP-C4
# Conditions: pH 7.4; 37 °C
Protein,Km [µM],kcat [s⁻¹],kcat/Km [s⁻¹ M⁻¹]
B7,140,27.4,196000

# Same assay, conditions: pH 8; 37 °C
Protein,Km [µM],kcat [s⁻¹],kcat/Km [s⁻¹ M⁻¹]
B8,31,70,2.26e+06
B9,27,17,630000

# Reference: the PETadex activity labels
